Measured values: US20210340264A1

Target: human SSTR2 (isoform A, UniProtKB P30874) (human) (UniProt P30874)
Assay: flow cytometry, BON-1 cells, same staining conditions (FIG. 10B)

human SSTR2, sequence (P30874 whole entry, canonical isoform): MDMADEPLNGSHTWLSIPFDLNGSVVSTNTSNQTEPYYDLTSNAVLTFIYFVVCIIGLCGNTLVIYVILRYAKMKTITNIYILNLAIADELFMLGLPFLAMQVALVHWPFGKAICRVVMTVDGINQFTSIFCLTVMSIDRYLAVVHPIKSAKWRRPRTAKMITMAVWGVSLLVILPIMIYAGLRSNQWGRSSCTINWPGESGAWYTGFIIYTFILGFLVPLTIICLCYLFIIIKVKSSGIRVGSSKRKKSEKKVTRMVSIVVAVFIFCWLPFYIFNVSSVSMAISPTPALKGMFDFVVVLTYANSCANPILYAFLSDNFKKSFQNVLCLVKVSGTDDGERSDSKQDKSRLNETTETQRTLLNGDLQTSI

surface binding percentage: 38%
Substance: commercial anti-SSTR2 mAb (R&D Systems, Catalog# MAB4224) (antibody)
